From patent publication US11306156 come the findings set out here.

The target of one experiment is tissue factor (TF) antigen (UniProt P13726). The experiment is described as follows: SPR, Fab captured on anti-penta-His, TF as analyte, 1:1 fit. Background: In SPR one partner is held on a chip, and binding of the other changes the refractive index at the surface.
Chain of tissue factor (TF) antigen (P13726 33-251 limits assumed): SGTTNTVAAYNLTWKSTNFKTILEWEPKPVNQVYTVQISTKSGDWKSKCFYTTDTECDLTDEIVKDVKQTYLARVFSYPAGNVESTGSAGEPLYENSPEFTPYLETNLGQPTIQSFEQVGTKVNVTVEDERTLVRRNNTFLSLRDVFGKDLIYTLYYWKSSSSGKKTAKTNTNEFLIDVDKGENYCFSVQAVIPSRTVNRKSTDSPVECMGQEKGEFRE
A word on the Kd: it is the equilibrium constant for the complex coming apart. The substance “D3H44 Fab heterodimer, H L124E_L143D_K145M / L Q124K_V133G_S176R_T178K” showed a Change in KD with respect to wild type (-(log(KD design) - log(KD wt))) of -0.15 and a Kd of 0.22 nM. “D3H44 Fab heterodimer, H L124R_S186R / L V133G_S176D_T178E_T180E”: the Change in KD with respect to wild type (-(log(KD design) - log(KD wt))) was -0.15 and the Kd was 0.22 nM. For “D3H44 Fab heterodimer, H L124E_L143E_K145M / L Q124K_V133G_S176R_T178R”, in that order: -0.29 and 0.31 nM. In the case of “D3H44 Fab heterodimer, H L124E_L143D_K145T / L Q124K_V133G_S176R_T178R”, the Change in KD with respect to wild type (-(log(KD design) - log(KD wt))) was -0.02 and the Kd amounted to 0.15 nM. Take “D3H44 Fab heterodimer, H L124E_L143D_K145T / L Q124K_V133G_S176R_T178K”: the Change in KD with respect to wild type (-(log(KD design) - log(KD wt))) was -0.08 and the Kd came to 0.19 nM. The substance “D3H44 Fab heterodimer, H L124E_L143E_K145M / L Q124K_V133G_S176R_T178K” registered a Change in KD with respect to wild type (-(log(KD design) - log(KD wt))) of -0.19 and a Kd of 0.24 nM.

The next experiment deals with tissue factor (TF) (human) (UniProt P13726). Nature of the experiment: SPR (ProteOn), Fab captured on anti-penta His, TF analyte, 1:1 fit.
Chain of tissue factor (TF) (human) (P13726 33-251 limits assumed): as above
As to “H1L1 Fab heterodimer of LCCA set 9259 (D3H44 Fab; H: L124E_L143E_K145M; L: Q124K_V133G_S176R_T178K)”, the Kd is 0.24 nM and the change in KD vs wild type, -(log(KD design)-log(KD wt)) is -0.19. As for “H1L1 Fab heterodimer of LCCA set 9566 (D3H44 Fab; H: L124W_L143F; L: V133A)”, the Kd was 0.25 nM and the change in KD vs wild type, -(log(KD design)-log(KD wt)) is -0.21. “H1L1 Fab heterodimer of LCCA set 9447 (D3H44 Fab; H: L124R_Q179K; L: V133G_S176D_T180E)” came in with a Kd of 0.28 nM and a change in KD vs wild type, -(log(KD design)-log(KD wt)) of -0.26. Regarding “H1L1 Fab heterodimer of LCCA set 9041 (D3H44 Fab; H: A139C_C233S; L: F116C_C214S)”, the Kd was found to be 0.14 nM. In other words, the sub-nanomolar range. In the case of “H1L1 Fab heterodimer of LCCA set 9743 (D3H44 Fab; H: L143R; L: Q124E_V133E_S176L)”, the Kd worked out at 0.28 nM and the change in KD vs wild type, -(log(KD design)-log(KD wt)) is -0.25. For “H1L1 Fab heterodimer of LCCA set 9043 (D3H44 Fab; H: F122C_C233S; L: S121C_C214S)”, the Kd is 0.16 nM. In other words, the sub-nanomolar range. In turn, “H1L1 Fab heterodimer of LCCA set 9213 (D3H44 Fab; H: L124E_L143D_K145T; L: Q124K_V133G_S176R)” yielded a Kd of 0.2 nM and a change in KD vs wild type, -(log(KD design)-log(KD wt)) of -0.11. “H1L1 Fab heterodimer of LCCA set 9917 (D3H44 Fab; H: S188L_V190Y; L: V133S)” yielded a Kd of 0.1 nM and a change in KD vs wild type, -(log(KD design)-log(KD wt)) of 0.2.

As for “H1L1 Fab heterodimer of LCCA set 9732 (D3H44 Fab; H: L143K; L: Q124E_V133D_S176L)”, the Kd came out at 0.28 nM and the change in KD vs wild type, -(log(KD design)-log(KD wt)) was -0.25.

“H1L1 Fab heterodimer of LCCA set 9070 (D3H44 Fab; H: F174G; L: S131T_S176F_T178Y)” had a Kd of 0.16 nM and a change in KD vs wild type, -(log(KD design)-log(KD wt)) of 0. Substance “H1L1 Fab heterodimer of LCCA set 9914 (D3H44 Fab; H: S188L_V190F; L: WT)” had a Kd of 0.15 nM and a change in KD vs wild type, -(log(KD design)-log(KD wt)) of 0.01. Turning to “H1L1 Fab heterodimer of LCCA set 9351 (D3H44 Fab; H: L124R_D146N_Q179K; L: Q124E_V133G_S176D_T178E_T180E)”, the equilibrium dissociation constant (Kd) came out at 0.2 nM and the change in KD vs wild type, -(log(KD design)-log(KD wt)) is -0.1.

Another experiment has as its target tissue factor (TF) antigen (UniProt P13726). Nature of the experiment: SPR, Fab captured on anti-penta His surface, TF as analyte, 1:1 fit.
In the case of “D3H44 Fab heterodimer, H1L1 of LCCA Sets # 9076, 9077 and 9078 (H1 H172T_Q179K; L1 Q124E_N137K_Q160E_S174R_T180E)”, the Change in KD with respect to wild type (-(log(KD design) - log(KD wt))) was determined as 0.01 and the Kd came to 0.15 nM. In the case of “D3H44 Fab heterodimer, H1L1 of LCCA Set # 9074 (H1 H172R_Q179K; L1 Q124E_Q160E_T180E)”, the Change in KD with respect to wild type (-(log(KD design) - log(KD wt))) was -0.01 and the Kd amounted to 0.16 nM. In turn, “D3H44 Fab heterodimer, H1L1 of LCCA Sets # 9560 and 9561 (H1 L124W_L143E_K145T_Q179E; L1 Q124R_V133A_S176T_T178R)” showed a Change in KD with respect to wild type (-(log(KD design) - log(KD wt))) of -0.13 and a Kd of 0.21 nM.

In turn, “D3H44 Fab heterodimer, H1L1 of LCCA Sets # 9558 and 9559 (H1 L124W_L143E_K145T_Q179E; L1 Q124K_V133A_S176T_T178R)” returned a Change in KD with respect to wild type (-(log(KD design) - log(KD wt))) of -0.24 and a Kd of 0.27 nM. For “D3H44 Fab heterodimer, H1L1 of LCCA Set # 9760 (H1 Q179K; L1 Q124E_Q160E_T180E)”, in that order: -0.31 and 0.32 nM.

Substance “D3H44 Fab heterodimer, H1L1 of LCCA Set # 9823 (H1 Q39R_H172R_Q179K; L1 Q38E_Q124E_Q160E_T180E)” yielded a Change in KD with respect to wild type (-(log(KD design) - log(KD wt))) of -0.18 and a Kd of 0.24 nM. Substance “D3H44 Fab heterodimer, H1L1 of LCCA Set # 9099 (H1 L124A_Q179K; L1 Q124E_V133W_S176T_T178L_T180E)” came in with a Change in KD with respect to wild type (-(log(KD design) - log(KD wt))) of -0.09 and a Kd of 0.19 nM. In turn, “D3H44 Fab heterodimer, H1L1 of LCCA Set # 9754 (H1 L45P_L143E_K145T_Q179E; L1 P44F_Q124R_Q160K_T178R)” yielded a Change in KD with respect to wild type (-(log(KD design) - log(KD wt))) of -0.28 and a Kd of 0.3 nM. As to “D3H44 Fab heterodimer, H1L1 of LCCA Sets # 9090, 9091 and 9092 (H1 L124A_L143F_Q179K; L1 Q124E_V133W_S176T_T178E_T180E)”, the Change in KD with respect to wild type (-(log(KD design) - log(KD wt))) is -0.02 and the Kd amounted to 0.16 nM. For “D3H44 Fab heterodimer, H1L1 of LCCA Sets # 9752 and 10552 (H1 L45P_L143E_K145T_H172R; L1 P44F_Q124R_Q160K_T178R)”, the Change in KD with respect to wild type (-(log(KD design) - log(KD wt))) is -0.27 and the Kd was 0.29 nM.

“D3H44 Fab heterodimer, H1L1 of LCCA Sets # 9094, 9095 and 9096 (H1 L124A_L143F_Q179K; L1 Q124E_V133W_S176T_T178L_T180E)” returned a Change in KD with respect to wild type (-(log(KD design) - log(KD wt))) of -0.04 and a Kd of 0.17 nM.

With “D3H44 Fab heterodimer, H1L1 of LCCA Set # 9817 (H1 Q39E_L143E_K145T; L1 Q38R_Q124R_Q160K_T178R)”, the Change in KD with respect to wild type (-(log(KD design) - log(KD wt))) is -0.05 and the Kd stood at 0.18 nM. Regarding “D3H44 Fab heterodimer, H1L1 of LCCA Set # 9820 (H1 Q39E_L143E_K145T_Q179E; L1 Q38R_Q124R_Q160K_T178R)”, the Change in KD with respect to wild type (-(log(KD design) - log(KD wt))) is -0.1 and the equilibrium dissociation constant (Kd) came out at 0.2 nM.

As for “D3H44 Fab heterodimer, H1L1 of LCCA Set # 9818 (H1 Q39E_L143E_K145T_H172R; L1 Q38R_Q124R_Q160K_T178R)”, the Change in KD with respect to wild type (-(log(KD design) - log(KD wt))) is -0.07 and the Kd was determined as 0.18 nM.
